{"source": "the DeepSol protein solubility set", "assay": "soluble on expression in E. coli; label from the status in PepcDB or PDB records", "data": [{"sequence": "MKIIITGEPGVGKTTLVKKIVERLGKRAIGFWTEEVRDPETKKRTGFRIITTEGKKKIFSSKFFTSKKLVGSYGVNVQYFEELAIPILERAYREAKKDRRKVIIIDEIGKMELFSKKFRDLVRQIMHDPNVNVVATIPIRDVHPLVKEIRRLPGAVLIELTPENRDVILEDILSLLER", "values": [{"measurement": "soluble on expression in E. coli", "value": "soluble"}]}, {"sequence": "MQEIGILENLQKSLALKEGMLSYEMLGKSLSYNPYLPRVIPQTKDCVFVTPDEVLEKLLKENTHTDCVIVNFKGLYEIGAPSVFNLEVLGLLRRHASSLIVHQDLFISHYQLLESLVQGSDGVVLDEELLKEDLKGMVEFSWRLGLSVFVETHKQDYTHLKDLGVLGVLEKVPHSQNQKRIVFLD", "values": [{"measurement": "soluble on expression in E. coli", "value": "not soluble"}]}, {"sequence": "MAHHHHHHMLLKALKASFEANKRVYESVLLTFKGVDGYDVYNCSVPFSYKGKTHIYGRVEKRDIWAASHVRLFEETGKDEFTAVPELSWELEDPYIAKINNEMIFGGTRVRKNGNAILSYYGYFYRGTPVELNYFTTGPDYMKDIRVVPLQDGRLGVFSRVRTRAEVYVGFSTVDTIDHLTTEVIATAKAIDFIRPGTWGGVNQAYLLSSGKIGCIGHFAYNDTKPSGEPLMVYINISFVFDAETRQLDTEHVIGTKSCYPACPAKLPVLEDCVFASGIVMRSDGKCDLYSGLGDTHEGRITIDYPFHGYGNIVGQMIF", "values": [{"measurement": "soluble on expression in E. coli", "value": "not soluble"}]}, {"sequence": "SLEKRQGLEDIGRVRATIKNEFPSLTLLTQDWGDWDETYKFSQNHNQEYLEANVPSLTTLSKSTKIDFLALYDLNAIELFKGAYHPDMEREVNLHSTPSIRSLVASVLKTNREKKGLFKTDEGLLALVARPILTSEGRGPSHGVIIMGRFLSQLLLSSVGKKCPIPFELFIQDDKRLSAPEKALFAKLSATAPRFTPVFHQGFVYQTYPDIE", "values": [{"measurement": "soluble on expression in E. coli", "value": "not soluble"}]}, {"sequence": "SYRSRSAFKLLEVNERHQILRPGLRVLDCGAAPGAWSQVAVQKVNAAGTDPSSPVGFVLGVDLLHIFPLEGATFLCPADVTDPRTSQRILEVLPGRRADVILSDMAPNATGFRDLDHDRLISLCLTLLSVTPDILQPGGTFLCKTWAGSQSRRLQRRLTEEFQNVRIIKPEASRKESSEVYFLATQYHGRKGTVKQ", "values": [{"measurement": "soluble on expression in E. coli", "value": "soluble"}]}, {"sequence": "MSFFDELKTSLEEAVEIKQGLKEPARVTRYEIADVKAIREQLNVSQSEMAKALGTSVDTIKSWESKRRNPTGLAAKVLATIKENPAFFRELASH", "values": [{"measurement": "soluble on expression in E. coli", "value": "not soluble"}]}, {"sequence": "MSSQKSGIVVQSDETHILISSSHDIFVADPDQNTKLGDSVSFTTWDIANNLKRASDIKPRNQIVESVVYEQDQSLRLRLKILGFYDFTKSQQRVFRTDFITQVREGEKFKYLPKNAFFGRQITVKLTHQKNSIVWELDEFEEPKEKTYSLIGQIYYTDFSDAYVYVPGYPEPFVISKETNFSRSEEGTWVKFLACTATASVKKSEGFQFLEKDLLDTNRNREIAIKCSRKDGIIQSHHFEKVIDKDNRLADYGVLSDFENVLIYVKVSMEGVSKKPSLILGQFQTSFNVNPTLTRDQKEALDPPKRILKKQSSLPREGSSRKQVTQIQNLSRKIETGPRINFLPNFNNQDHGSEFFSDNEEMDLVPPLENSHLRVDPVPVPIEPSIQQNRTTTTAPISAPARRISSNESRRENPNSQPAPSKMQNVFREDPEAEYKRPERSNADNDETSSTISACSSKSRIVRENPDANYERPARRLPTPPLEANDNLEHQSHDSSSTDGLRDTSPVGNNTNPRSGSPSCHSDTHSSVSSSLWITTINSSKDLEFVKNEYIKLWIEDQASQKEMKNLKAKRIELKMKQKKLKAELNDEKMKNQKLEEAAFNDRKEKAELKKKVSNLEQSAQNTQRTLQNQTRELNLYSTNRSWLRKEFNSTNLLEHLRRNYHDLSKRLEQFAFN", "values": [{"measurement": "soluble on expression in E. coli", "value": "not soluble"}]}, {"sequence": "MGSDKIHHHHHHMFIKNAWYVACRPEEIQDKPLGRTICGEKIVFYRGKENQVAAVEDFCPHRGAPLSLGYVEDGNLVCGYHGLVMGCDGKTVSMPAQRVNGFPCNKAYAVVEKFGFIWVWPGEKALADEAKLPTLEWADHPEWSYGGGLFHIQCDYRLMIDNLMDLTHETYVHSSSIGQKEIDEALPVTKVEGDHVITERYMENVIAPPFWQMALRGNHLADDVPVDRWQRCHFFAPSNVHIEVGVAHAGHGGYHAPKDKKVSSIVVDFITPETETSHWYFWGMARNFQPDNAELTDQIREGQGKIFTEDLEMLEQQQQNILNNPHRKLLMLNIDAGGVQSRKVIDRLLAEENKTPPETSTQKFPNIRII", "values": [{"measurement": "soluble on expression in E. coli", "value": "not soluble"}]}]}
